Assay results reported in patent US10501734B2, “Compositions and methods of use thereof for making polypeptides with many instances of nonstandard amino acids” (Yale University, priority 2014, dated 2019).
Like-named read-outs stand apart in the source and are kept apart here.

Columns and labels:
GFP(3TAG) = format: cell-based, E. coli
ELP(30TAG)-GFP = assay: Intact cell GFP fluorescence, ELP(30TAG)-GFP production; format: cell-based, E. coli; details: plasmid-based OTSs; panel of 14 nsAAs
Procedure: Liquid cell cultures of strains harboring chromosomally integrated OTSs and GFP reporter plasmids were inoculated from frozen stocks and grown to confluence overnight. Cultures were then inoculated at 1:20 dilution in LBmin media supplemented with 30 μg/ml kanamycin. Strains were inoculated by addition of 1:20 confluent cell culture (grown overnight) and allowed to grow at 34° C. to an OD600 of 0.5-0.8 in a shaking plate incubator at 650 r.p.m (˜3 h). AARS expression was then induced by the addition of 0.2% arabinose, GFP expression was induced by the addition of 60 ng/ul anhydrotetracycline, and the appropriate nsAA was added to a concentration of 1 mM. Cells were incubated at 34° C. for an additional 16 h. Liquid cell cultures of strains harboring plasmid-based OTSs and GFP or ELP-GFP reporter plasmids were inoculated from frozen stocks and grown to confluence overnight. Cultures were then inoculated at 1:20 dilution in 2×YT media supplemented with 30 μg/ml kanamycin and 20 μg/ml chloramphenicol. […] Cells were allowed to grow at 34° C. to an OD600 of 0.5-0.8 in a shaking plate incubator at 650 r.p.m (˜3 h), reporter protein expression was then induced by the addition of 60 ng/ul anhydrotetracycline, and cells were incubated at 34° C. for an additional 16 h.
For 384 well plate-based assays, fluorescence and OD600 were directly measured following expression. For 96 well plate-based assays, cells were centrifuged at 4,000 g for 4 min. Supernatant medium was removed and cells were resuspended in PBS. This process was repeated twice with PBS. GFP fluorescence was measured on a Biotek spectrophotometric plate reader using excitation and emission wavelengths of 395 and 509 nm, respectively). Fluorescence signals were normalized by dividing the fluorescence counts by the OD600 reading. The nsAAs used in this study were purchased from Sigma-Aldrich (St. Louis, Mo.), Chemlmpex (Wood Dale, Ill.), and Bachem (Torrance, Calif.). Solutions of nsAAs (50 mM) were made in water or 50 mM NaOH; these stock solutions were diluted 50- or 100-fold (to 1 mM final concentration) into medium used for bacterial growth.

[1] = chromosomally integrated AARS, pAzF

Molecule	nsAA specificity in ELP(30TAG)-GFP production (ELP(30TAG)-GFP)	higher GFP(3TAG) production compared with the progenitor enzyme (GFP(3TAG); [1])	also measured
pAcFRS.1.t1: pAcFRS variant A167D, R257G, SEQ ID NO: 5 (protein) MDEFEMIKRNTSEIISEEELREVLKKDEKSALIGFEPSGKIHLGHYLQIKKMIDLQNAGFDIIILLADLHAYLNQKGELDEIRKIGDYNKKVFEAMGLKAKYVYGSEFQLDKDYTLNVYRLALKTTLKRARRSMELIAREDENPKVAEVIYPIMQVNGCHYRGVDVDVGGMEQRKIHMLARELLPKKVVCIHNPVLTGLDGEGKMSSSKGNFIAVDDSPEEIRAKIKKAYCPAGVVEGNPIMEIAKYFLEYPLTIKGPEKFGGDLTVNSYEELESLFKNKELHPMRLKNAVAEELIKILEPIRKRL			higher GFP(3TAG) production compared with the progenitor enzyme (GFP(3TAG); chromosomally integrated AARS, pAcF): ~17 fold
pAcFRS.2.t1: pAcFRS variant L65V, A167D, R257G, SEQ ID NO: 8 (protein) MDEFEMIKRNTSEIISEEELREVLKKDEKSALIGFEPSGKIHLGHYLQIKKMIDLQNAGFDIIIVLADLHAYLNQKGELDEIRKIGDYNKKVFEAMGLKAKYVYGSEFQLDKDYTLNVYRLALKTTLKRARRSMELIAREDENPKVAEVIYPIMQVNGCHYRGVDVDVGGMEQRKIHMLARELLPKKVVCIHNPVLTGLDGEGKMSSSKGNFIAVDDSPEEIRAKIKKAYCPAGVVEGNPIMEIAKYFLEYPLTIKGPEKFGGDLTVNSYEELESLFKNKELHPMRLKNAVAEELIKILEPIRKRL	for pAcF over pAzF decreases when expressed on a multi-copy plasmid		selectivity toward pAcF over pAzF (GFP(3TAG); GFP(3TAG) expression, chromosomally integrated AARS): increase in selectivity
pAcFRS: progenitor M. jannaschii based p-acetyl-L-phenylalanine AARS, SEQ ID NO:1 (Young, et al., 2010) (protein, listed as Methanocaldococcus jannaschii) MDEFEMIKRNTSEIISEEELREVLKKDEKSALIGFEPSGKIHLGHYLQIKKMIDLQNAGFDIIILLADLHAYLNQKGELDEIRKIGDYNKKVFEAMGLKAKYVYGSEFQLDKDYTLNVYRLALKTTLKRARRSMELIAREDENPKVAEVIYPIMQVNGCHYRGVDVAVGGMEQRKIHMLARELLPKKVVCIHNPVLTGLDGEGKMSSSKGNFIAVDDSPEEIRAKIKKAYCPAGVVEGNPIMEIAKYFLEYPLTIKRPEKFGGDLTVNSYEELESLFKNKELHPMRLKNAVAEELIKILEPIRKRL			decrease in the yield of GFP(3TAG) by genomic integration of the OTS (GFP(3TAG); RF1 deficient GRO, chromosomal versus plasmid OTS): ~20 fold
pAzFRS.2.t1: pAcFRS variant E107T, F108Y, Q109M, R257G, SEQ ID NO: 14 (protein) MDEFEMIKRNTSEIISEEELREVLKKDEKSALIGFEPSGKIHLGHYLQIKKMIDLQNAGFDIIILLADLHAYLNQKGELDEIRKIGDYNKKVFEAMGLKAKYVYGSTYMLDKDYTLNVYRLALKTTLKRARRSMELIAREDENPKVAEVIYPIMQVNGCHYRGVDVAVGGMEQRKIHMLARELLPKKVVCIHNPVLTGLDGEGKMSSSKGNFIAVDDSPEEIRAKIKKAYCPAGVVEGNPIMEIAKYFLEYPLTIKGPEKFGGDLTVNSYEELESLFKNKELHPMRLKNAVAEELIKILEPIRKRL		~25 fold	
pAzFRS.1.t1: pAcFRS variant D158V, I159M, L162D, A167Y, R257G, SEQ ID NO: 11 (protein) MDEFEMIKRNTSEIISEEELREVLKKDEKSALIGFEPSGKIHLGHYLQIKKMIDLQNAGFDIIILLADLHAYLNQKGELDEIRKIGDYNKKVFEAMGLKAKYVYGSEFQLDKDYTLNVYRLALKTTLKRARRSMELIAREDENPKVAEVIYPIMQVNVMHYDGVDVYVGGMEQRKIHMLARELLPKKVVCIHNPVLTGLDGEGKMSSSKGNFIAVDDSPEEIRAKIKKAYCPAGVVEGNPIMMEIAKYFLEYPLTIKGPEKFGGDLTVNSYEELESLFKNKELHPMRLKNAVAEELIKILEPIRKRL	maintains stringent specificity for pAzF	~5.5 fold	
